Measured values taken from patent publication US20250243290A1.
Values joined by “and” are separate entries in the source; they are usually repeats but may differ in a detail not shown here. Identical values can stand only once. Like-named read-outs stand apart in the source and are kept apart here.

Assays:
Test in all cases: peptide-array ELISA [Con't]
[1] = biological target: LSCGSR2…2T2
[2] = biological target: 2LSCGSR2…
[3] = biological target: 2TREQNRI2…2R
[4] = biological target: 2…
[5] = biological target: C2T2RPGWY2…2…
[6] = biological target: CAPLRK2…2TSTSPTRC
[7] = biological target: CDQVETQA2…2RLC
[8] = biological target: CGWY2ALSKQEG2RL2CQA2TREQNRI2T2RPC
[9] = biological target: CI2RPHQI2…2…
[10] = biological target: CLSKQEG2RL2APLRKCQA2TREQNRI2T2RPC
[11] = biological target: CLSKQEG2RL2…2TREQNRIC
[12] = biological target: CNASMDAV2…2TREQNRI2T2RPC
[13] = biological target: CNASMDAV2…2TSTSPTRC
[14] = biological target: CQA2TREQNRI2T2RPCQA2TREQNRI2T2RPC
[15] = biological target: CQA2TREQNRI2T2…2RLC
[16] = biological target: CQTAQM22SK2…2TSTSPTRC
[17] = biological target: CQTAQM22SK2…2…
[18] = biological target: CTSSTDI2RPHQI2NVCAPLRK2…
[19] = biological target: CTSSTDI2RPHQI2NVCQA2TREQNRI2T2RPC
[20] = biological target: DI2…
[21] = biological target: DVV2…
[22] = biological target: EQNRI2…2RL
[23] = biological target: NWVPE2…2T2
[24] = biological target: QEG2…2APGTFSN
[25] = biological target: QNRI2…2R
[26] = biological target: REQNRI2…2RL
[27] = biological target: VPE2LSCGSR2…
[28] = biological target: …22SK2CAPLRK2…
[29] = biological target: …22SK2CQA2TREQNRI2T2RPC
[30] = biological target: …2LS2GCLSKQEG2RL2APLRKC
[31] = biological target: …2R
[32] = biological target: …2SK2SPGQ
[33] = biological target: …2TREQNRI2T2RPC
[34] = biological target: …2TSTSPTRC
[35] = biological target: …2…
[36] = biological target: ALSKQEG2…2APGTFSN
[37] = biological target: CDQVETQA2…2TREQNRI2T2RPC
[38] = biological target: CGSR2…
[39] = biological target: CGWY2ALSKQEG2RL2CNASMDAV2TSTSPTRC
[40] = biological target: CLSKQEG2RL2…22SK2C
[41] = biological target: E2LSCGSR2…2T2
[42] = biological target: EGCRL2…2…
[43] = biological target: QNRI2…2RL
[44] = biological target: SCGSR2…
[45] = biological target: …2KCAPLRK2…
[46] = biological target: …2KP2…2…
[47] = biological target: …2RLCQA2TREQNRI2T2RPC
[48] = biological target: …2SK2SPGQ; remark: listed apart in the source
[49] = biological target: …2TSTSPTRC; remark: listed apart in the source
[50] = biological target: …2…2TSTSPTRC
[51] = biological target: …2…; remark: listed apart in the source

Chain of SCGSR2… (peptide, as listed by the source): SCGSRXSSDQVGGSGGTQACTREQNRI
Chain of …2R (peptide, as listed by the source): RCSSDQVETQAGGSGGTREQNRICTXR
Chain of DI2… (peptide, as listed by the source): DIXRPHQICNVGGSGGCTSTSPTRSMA
Chain of CGSR2… (peptide, as listed by the source): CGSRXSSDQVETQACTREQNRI

agonistic TNFR2 antibody MR2-1
Raw luminescence data [1]: 226 | Raw luminescence data [2]: 157 | Raw luminescence data [3]: 164 | Raw luminescence data [4]: 170 | Raw luminescence data [5]: 161 | Raw luminescence data [6]: 167 | Raw luminescence data [7]: 157 | Raw luminescence data [8]: 158 | Raw luminescence data [9]: 165 | Raw luminescence data [10]: 158 | Raw luminescence data [11]: 160 | Raw luminescence data [12]: 157 | Raw luminescence data [13]: 164 | Raw luminescence data [14]: 166 | Raw luminescence data [15]: 171 | Raw luminescence data [16]: 164 | Raw luminescence data [17]: 161 | Raw luminescence data [18]: 158 | Raw luminescence data [19]: 166 | Raw luminescence data [20]: 166 | Raw luminescence data [21]: 159 | Raw luminescence data [22]: 159 | Raw luminescence data [23]: 168 | Raw luminescence data [24]: 167 | Raw luminescence data [25]: 170 | Raw luminescence data [26]: 161 | Raw luminescence data [27]: 165 | Raw luminescence data [28]: 168 | Raw luminescence data [29]: 158 | Raw luminescence data [30]: 164 | Raw luminescence data [31]: 160 | Raw luminescence data [32]: 163 and 156 | Raw luminescence data [33]: 163 | Raw luminescence data [34]: 159 | Raw luminescence data [35]: 166 and 165 | Raw luminescence data [36]: 151 | Raw luminescence data [37]: 154 | Raw luminescence data [38]: 153 | Raw luminescence data [39]: 156 | Raw luminescence data [40]: 156 | Raw luminescence data [41]: 153 | Raw luminescence data [42]: 155 | Raw luminescence data [43]: 151 | Raw luminescence data [44]: 155 | Raw luminescence data [45]: 151 | Raw luminescence data [46]: 150 | Raw luminescence data [47]: 150 | Raw luminescence data [48]: 156 and 153 | Raw luminescence data [49]: 154 | Raw luminescence data [50]: 156 | Raw luminescence data [51]: 155
